Data published in the DeepSol protein solubility set.

assay: soluble on expression in E. coli; label from the status in PepcDB or PDB records

Sequence | soluble on expression in E. coli
MGSDKIHHHHHHMKIAVLNQKGGSGKTTVSIHLAHAFSMIGYRVLLVDTDPQGSTRDWAAARNGEAPFSVIGLDRPILHKELPKLAQGYDFVFIDGAPRVSDLTRSAIMAVDFVLVPVQPSPLDVWAVHEVVELVQEATIYKPDLTAAFLINRKIANTALGREVTEVLGEYPFPVLKAQISQRVAFAECLNIGSTVLEAAPKSAASDEVRAVVEEILEAREETNHGRS | not soluble
PHSMEPQVTLNVTFKNEIQSFLVSDPENTTWADIEAMVKVSFDLNTIQIKYLDEENEEVSINSQGEYEEALKMAVKQGNQLQMQVHEGHHVVDEAPPPVVGAKRLAARAGKKPLAHYSSLVRVLGSDMKTPEDPAVQSFPLVPCDTDQPQDKPPDWFTSYLETFREQVVNETVEKLEQKLHEKLVLQNPSLGSCPSEVSMPTSEETLFLPENQFSWHIACNNCQRRIVGVRYQCSLCPSYNICEDCEAGPYGHDTNHVLLKLRRPVVGSSEPFCHSKYSTPRLPAALEQVRLQKQVDKNFLKAEKQRLRAEKKQRKAEVKELKKQLKLHRKIHLWNSIHGLQSPKSPLGRPESLLQSNTLMLPLQPCTSVMPMLSAAFVDENLPDGTHLQPGTKFIKHWRMKNTGNVKWSADTKLKFMWGNLTLASTEKKDVLVPCLKAGHVGVVSVEFIAPALEGTYTSHWRLSHKGQQFGPRVWCSIIVDPFPSEESPDNIEKGMISSSKTDDLTCQQEETFLLAKEERQLGEVTEQTEGTAACIPQKAKNVASERELYIPSVDLLTAQDLLSFELLDINIVQELERVPHNTPVDVTPCMSPLPHDSPLIEKPGLGQIEEENEGAGFKALPDSMVSVKRKAENIASVEEAEEDLSGTQFVCETVIRSLTLDAAPDHNPPCRQKSLQMTFALPEGPLGNEKEEIIHIAEEEAVMEEEEDEEDEEEEDELKDEVQSQSSASSEDYIIILPECFDTSRPLGDSMYSSALSQPGLERGAEGKPGVEAGQEPAEAGERLPGGENQPQEHSISDILTTSQTLETVPLIPEVVELPPSLPRSSPCVHHHGSPGVDLPVTIPEVSSVPDQIRGEPRGSSGLVNSRQKSYDHSRHHHGSSIAGGLVKGALSVAASAYKALFAGPPVTAQPIISEDQTAALMAHLFEMGFCDRQLNLRLLKKHNYNILQVVTELLQLNNNDWYSQRY | soluble
MPLDPQIKPILERIRALSIAASPQELRRQVEEQSRLLTAAVQEPIAETRDVHIPVSGGSIRARVYFPKKAAGLPAVLYYHGGGFVFGSIETHDHICRRLSRLSDSVVVSVDYRLAPEYKFPTAVEDAYAALKWVADRADELGVDPDRIAVAGDSAGGNLAAVVSILDRNSGEKLVKKQVLIYPVVNMTGVPTASLVEFGVAETTSLPIELMVWFGRQYLKRPEEAYDFKASPLLADLGGLPPALVVTAEYDPLRDEGELYAYKMKASGSRAVAVRFAGMVHGFVSFYPFVDAGREALDLAAASIRSGLQPS | soluble
MGSDKIHHHHHHMPFKAKDQQGNIVLATDFKSVLEIRKNFPKGSLFCPFCQTLMFPRKRQNTSLHFVHTHPCTTVMEHHPESPEHLQGKLEISKYFQEVYKGMIDAQEAFIEIEHPISEAGKNGRIADVAVVFSTGYRIIGECQLAKIEAADIYQRTQDYYSISADVLWFLGGAADTPENRQAAVDLDVFAGTINFTYST | not soluble
MAALIDTGIFFGFYSLKDVHHMDSVAIVVHAVEGKWGRLFVTNHILDETLTLLKYKKLPADKFLEGFVESGVLNIIYTDDEVERKALEVFKARVYEKGFSYTDAISEVVAEELKLKLISYDSRFSLPTIGRDYWKSLDESERKRISAILREKGIDG | soluble
MAHHHHHHMGTLEAQTQGPGSMSEPLLLQDRDERGVVTLTLNRPQAFNALSEAMLAALGEAFGTLAEDESVRAVVLAASGKAFCAGHDLKEMRAEPSREYYEKLFARCTDVMLAIQRLPAPVIARVHGIATAAGCQLVAMCDLAVATRDARFAVSGINVGLFCSTPGVALSRNVGRKAAFEMLVTGEFVSADDAKGLGLVNRVVAPKALDDEIEAMVSKIVAKPRAAVAMGKALFYRQIETDIESAYADAGTTMACNMMDPSALEGVSAFLEKRRPEWHTPQPSTA | soluble
MSDMSDLEDDQTGHCGSGEHSGPFDPKRHAREQHNALERRRRDNIKDMYTSLREVVPDANGERVQASRAVILKKAIESIEKGQSDSATLSVDVAEQESKNAKLREEIARLKAKKDPSSSQSIIQ | not soluble
MGSDKIHHHHHHMTQHVIEMREITKKFGDFVANDHINLNVRKGEIHALLGENGAGKSTLMNMLAGLLEPTSGEIVINDKPVQIDSPSKSAKLGIGMVHQHFMLVEAFTVAENIILGNEVVKNGCLDLNQASKDIKVLSEKYGLAINPSAKVSDISVGAQQRVEILKTLYRGADILIFDEPTAVLTPAEIKELMTIMKNLVKEGKSIILITHKLDEIRAVADRVTVIRRGKSIETVDVAGATSQDLAEMMVGRSVSFTTSKKAAEPKDVVLSIKNLEVDENRGVPAVKGLSLDVRAGEIVGIAGIDGNGQSELIQAITGLRKVKSGSIMIKNNEVTHLSSRKITELSVGHVPEDRHRDGLILDLSLAENTALQTYYKQPLSQNGILNYTKINDYARQLMKEFDVRGANELVPARGFSGGNQQKAIIAREVDRDPDLLIVSQPTRGLDVGAIEYIHKRLIKERDKGKAVLVVSFELDEILNLSDRIAVIHDGKIQGIVSPENTNKQELGILMAGGSIHKEEGHV | not soluble
MGVILLLLIIVFSFSKEAYYCIQVLSSRDLSSAERAYRKLADYPHARIEKIGDYYTVRVGLWENKSKAKEYLSQVKSVYPGAFLRTCYYIEDRIVSINKGNVKKKVESFNGKELVLHGKNEKELICKAVKKVFEDIVSFEGKLTKREITFKSYFPYSVADAVNYALILNKKEGFIPVRCRVYKRDKITYVLELEGFKNGKVKGIKAVDYASVTYRNKVLRLKLIF | not soluble
MGSDKIHHHHHHMPFRRPCAINRPPLTSGCQGHPLSSRRAAQGPGGFFYRHKDMAMTQKRALGLDFGTTNTVMALSDTGSASHSMRFTSSAGTDDSMRTALSFMKDAGLGAAALHVEAGQAAIRQFIDNAGDCRFLQSIKTFAASPLFQGTLIFAKRQSFEDLMEVFLRKLKTYAGSEWPGDVSTVIAGRPVRFAGSNPDETLALARYNEALTRAGFPEIHYVYEPVAAAYYFAQSLKKDANVLVADFGGGTTDYSLIRFETHAGKLSATPIGHSGVGVAGDHFDFRMIDNLVSPEIGKGSKFKSFDKVLDVPSGYYVNFGRWNQLSIFKTSKEFTDLKSLVRSALEPDKLELFIDLVEHDEGYPLYQAISATKMALSSAQEAEFNFSPLGKAGRKMVKRSDFNNWIADDLAKIEGALDEVLEKTKVAPEAIDKVFLTGGTSFVPAVRELFTRRFDADRIESGGELLSIAHGLAMIGESGDIQRWTA | not soluble
MRVEIIFLGCGGGRWATITQKKATGGFRIHTNELRMHVDPGPGAIVRLNELKISPWRTNALFISHCHPDHYTDGEIIVEAITQGMTKKRGVFLGSLSVVEGFGEYEYVVSKYHQSKLEEVRVLYPGDSAELYDTTIKATHTKHGDPFGIGFRLSTIYGDIGYTSDTEFIPQLIEDFDGVRILIANIVRKKNERIKGHLCSNDAIDLINSMNKKPELLIMNHMGVKMTNPQIEAEYISQNTGIEVIPARLGLKVELLNGKYKYQLIKLEHHHHHH | soluble
MSYQSLLTHRCDIYHLQEKKENRKQKFGVPVEDVQPVFSYPDEPDIENQPCYFTEKSQSIIQQESNVSIYQSFLVHFPATADIRVNDRAVWDGTAYKLQKPRKIRNHHWEVTAVREVEYLLEHHHHHH | soluble
MAHHHHHHMVVSTGEFDHPPFQFRQRHTFNTTPLHDANRFGGRTAYLREIGPVNIKKQGRRFKKDPRTVQFNVDVWCAQQTLRKRWKQRDWEVIEIPFRLVPREQQRVIPELYTDIPQMTDPARNDFSNIRNKVYDREELQGVLFPAAGTMLYPPLQRVDKQAMTLDKYL | not soluble
MAGLTRALVARHALGRAEAYDAALLDVAQDHLLYLLSQTVQFGDNRLVFKGGTSLRKCRLGNVGRFSTDLDFSAPDDEVVLEVCELIDGARVGGFEFGVQSTRGDGRHWQLRVRHTELGEPRIVASVEFARRPLALPSELLAFIQLPIHKAYGFGLPTLPVVAEAEACAEKLARYRRVALARDLYDLNHFASRTIDEPLVRRLWVLKVWGDVVDDRRGTRPLRVEDVLAARSEHDFQPDSIGVLTRPVAMAAWEARVRKRFAFLTDLDADEQRWAACDERHRREVENALAVLRS | soluble
MSSYDIAIIGGGISGVGIAQYAAAAGYSTLLIEKGEIGGQTSANSSKLIHGGLRYLESGQINLVRKSLLERRNLLDLAPSLVKPVAFYIPVYQDSRRNPLTIRAGLSLYALLSEFDPLGRFVSIPAVHWHRFKGLKLSGLKAVFQYWDAQTDDKLLTQAVARSAQALGAHIYAEAEFLQLNHLKEQIELSFRHRGEVQQIETKLVINAAGPWVNEVLAHVEPPLAGVEIDWVQGAHLLLDLPAPEGILYLESCFDKRVIFVMPWYGQMLIGTTETVLTSIDTPPQVTESETQYLLGIYCHYFPLSPSIEELKTKIVQTYCGVRVLPKQASSAFERPRDTLMQTSISHPRLLCLYGGKLTTFRSSSAEVLEWIEQKLGKRQPIADIDTLKLTLEHHHHHH | not soluble
MEGVELKEEWQDEDFPIPLPEDDSIEADILAITGPEDQPGSLEVNGNKVRKKLMAPDISLTLDPSDGSVLSDDLDESGEIDLDGLDTPSENSNEFEWEDDLPKPKTTEVIRKGSITEYTAAEEKEDGRRWRMFRIGEQDHRVDMKAIEPYKKVISHGGYYGDGLNAIVVFAVCFMPESSQPNYRYLMDNLFKYVIGTLELLVAENYMIVYLNGATTRRKMPSLGWLRKCYQQIDRRLRKNLKSLIIVHPSWFIRTLLAVTRPFISSKFSQKIRYVFNLAELAELVPMEYVGIPECIKQVDQELNGKQDEPKNEQLEHHHHHH | soluble
SLSELMGKRVLIIDDNLTSQKILINQAQSWGMFTCAVDSGEKALEWLKRGITFDVAILDMNLPDMNGLELVREIRKQPNCTRLPLIMLSAITETEKTFQSSEEEFVAVLCKPVQRSQLYNVLMEIFSEIPRAPIRVTEG | soluble
MAEMDERFQQILSWQQMDQNKAISQILQESAMQKAAFEALQVKKDLMHRQIRSQIKLIETELLQLTQLELKRKSLDTESLQEMISEQRWALSSLLQQLLKEKQQREEELREILTELEAKSETRQENYWLIQYQRLLNQKPLSLKLQEEGMERQLVALLEELSAEHYLPIFAHHRLSLDLLSQMSPGDLAKVGVSEAGLQHEILRRVQELLDAARIQPELKPPMGEVVTPTAPQEPPESVRPSAPPAELEVQASECVVCLEREAQMIFLNCGHVCCCQQCCQPLRTCPLCRQDIAQRLRIYHSS | soluble
MGHHHHHHSHMAFRQPNTKELKVIRKALSYYGSGDFLSHYALLVKEGEKKEVYGVSKELYGVIGELNPHYAGVKIGEVGRRFRFSLEGTFWLLRNSRNRVWVNERGEMLFLYGRDIFAGSVERASEFGENSIVFVCNRFDDVLGIGRSRHSSDELSNLPEDKVFVENLVDRGEYLRH | soluble
GPGSMSRTQTSSKSVPKNIAVYCRVRPPVPNEKGHTFQNISYDDSDSRAIAVARKSGTKALEKTYLFNRVFRPTATQKDVYETFAKGAVDAAFDGQHGVLFVYGQTGSGKTFTISNDEPNNEGVLQRSMRDIWNRIASDTANDYSCSVSYVQLYNEILTDLLDDAKGKVRIQMGSEGRGDVVMVSDSTGMAIEREVKDYKSTMACFQVGLARKEMASTSMNSTSSRSHTIFTLNIVKAKKVVAVTV | not soluble
